Publication PMC9816786 (2022)

How the values were obtained:
Test in all cases: BLI
P1.40 R111A = biological target: P1.40 R111A
P1.40 E46A = biological target: P1.40 E46A
P1.40 R43A = biological target: P1.40 R43A
P1.40 T109A = biological target: P1.40 T109A
P1.40 D89A = biological target: P1.40 D89A
P1.40 E44A = biological target: P1.40 E44A
P1.40 F110A = biological target: P1.40 F110A
P1.40 D62A = biological target: P1.40 D62A

B1: CHRD (aa 449–693) of human PCSK9, 6xHis-tagged (domain or fragment)
chain: HGAGWQLFCRTVWSAHSGPTRMATAVARCAPDEELLSCSSFSRSGKRRGERMEAQGGKLVCRAHNAFGGEGVYAIARCCLLPQANCSVHTAPPAEASMGTRVHCHQQGHVLTGCSSHWEVEDLGTHKPPVLRPRGQPNQCVGHREASIHASCCHAPGLECKVKEHGIPAPQEQVTVACEEGWTLTGCSALPGTSHVLGAYAVDNTCVVRSRDVSTTGSTSEGAVTAVAICCRSRHLAQASQELQ
modifications: biotinylated where it was immobilised for BLI (site not told)
Question: B1 was tested. Which Kd (P1.40 R111A) did it give?
Answer: Its Kd is 3.49 nM.

Question: What about the koff (P1.40 R111A) of the same binder?
Answer: The koff was 0.00147 s⁻¹.

Question: What about the Kd (P1.40 E46A) of the same binder?
Answer: Its Kd is 1.22 nM.

Question: And the koff (P1.40 E46A)?
Answer: Its koff is 0.00064 s⁻¹.

Question: What about the Kd (P1.40 R43A) of the same binder?
Answer: Its Kd is 2.86 nM.

Question: And the koff (P1.40 R43A)?
Answer: The koff was 0.00141 s⁻¹.

Question: What about the Kd (P1.40 T109A) of the same binder?
Answer: Its Kd is greater than 1000 nM.

Question: What about the koff (P1.40 T109A) of the same binder?
Answer: Its koff is greater than 0.001 s⁻¹.

Question: What about the Kd (P1.40 D89A) of the same binder?
Answer: Its Kd is 2.79 nM.

Question: And the koff (P1.40 D89A)?
Answer: Its koff is 0.000882 s⁻¹.

Question: And the Kd (P1.40 E44A)?
Answer: Its Kd is 0.477 nM.

Question: And the koff (P1.40 E44A)?
Answer: Its koff is 0.000359 s⁻¹.

Question: What about the Kd (P1.40 F110A) of the same binder?
Answer: Its Kd is greater than 1000 nM.

Question: What about the koff (P1.40 F110A) of the same binder?
Answer: Its koff is greater than 0.001 s⁻¹.

Question: And the Kd (P1.40 D62A)?
Answer: The Kd was 1.26 nM.

Question: And the koff (P1.40 D62A)?
Answer: Its koff is 0.000668 s⁻¹.
